Measured values published in EP3741773A1.

Biological target: meditope-enabled trastuzumab Fab fragment
Experiment: SPR

Sequence of meditope-enabled trastuzumab Fab fragment (chain, as listed by the source, chain 1 of 2): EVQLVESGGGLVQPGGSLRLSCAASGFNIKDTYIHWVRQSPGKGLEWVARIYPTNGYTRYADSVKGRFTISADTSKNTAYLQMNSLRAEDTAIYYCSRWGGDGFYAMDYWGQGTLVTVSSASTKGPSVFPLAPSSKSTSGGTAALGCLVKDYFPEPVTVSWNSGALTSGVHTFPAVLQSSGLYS
Sequence of meditope-enabled trastuzumab Fab fragment (chain, as listed by the source, chain 2 of 2): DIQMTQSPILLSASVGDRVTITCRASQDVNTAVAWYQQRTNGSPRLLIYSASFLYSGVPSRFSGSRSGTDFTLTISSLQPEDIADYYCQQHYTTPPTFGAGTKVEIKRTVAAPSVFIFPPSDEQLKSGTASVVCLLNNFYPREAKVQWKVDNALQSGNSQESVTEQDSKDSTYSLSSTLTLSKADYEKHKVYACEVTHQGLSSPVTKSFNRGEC

CQFDLSTRRLKC (modifications not checked) [cQFD meditope]
Kd: 1000 nM
